Experimental data taken from paper PMC8464039 (Nucleic Acids Research, 2021).

T1: CsyRE3 (Pseudomonas aeruginosa, UniProt Q02ML9;Q02MM0;Q02MM1;Q02MM2 1-434;1-327;1-342;1-187, R207E;R219E;R258E)
T1 sequence 1: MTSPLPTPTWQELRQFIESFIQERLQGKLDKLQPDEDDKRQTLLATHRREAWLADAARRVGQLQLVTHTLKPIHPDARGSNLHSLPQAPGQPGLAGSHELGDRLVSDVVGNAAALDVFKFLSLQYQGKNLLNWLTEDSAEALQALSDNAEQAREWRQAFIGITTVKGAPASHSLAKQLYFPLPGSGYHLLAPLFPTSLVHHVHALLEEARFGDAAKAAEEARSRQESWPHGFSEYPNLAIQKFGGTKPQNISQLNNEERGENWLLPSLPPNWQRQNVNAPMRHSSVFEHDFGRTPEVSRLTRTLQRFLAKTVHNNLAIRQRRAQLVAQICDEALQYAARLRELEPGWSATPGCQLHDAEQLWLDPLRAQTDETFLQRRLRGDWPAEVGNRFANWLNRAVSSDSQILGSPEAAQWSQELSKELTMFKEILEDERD
T1 sequence 2: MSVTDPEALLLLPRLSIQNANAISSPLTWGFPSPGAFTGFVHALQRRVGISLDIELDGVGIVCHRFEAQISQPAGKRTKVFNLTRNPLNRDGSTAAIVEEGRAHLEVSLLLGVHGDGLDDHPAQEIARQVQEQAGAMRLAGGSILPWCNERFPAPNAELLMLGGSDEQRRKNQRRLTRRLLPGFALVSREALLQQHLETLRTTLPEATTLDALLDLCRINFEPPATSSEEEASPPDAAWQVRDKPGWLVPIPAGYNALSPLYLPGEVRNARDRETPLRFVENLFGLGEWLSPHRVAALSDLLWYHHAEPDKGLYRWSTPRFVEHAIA
T1 sequence 3: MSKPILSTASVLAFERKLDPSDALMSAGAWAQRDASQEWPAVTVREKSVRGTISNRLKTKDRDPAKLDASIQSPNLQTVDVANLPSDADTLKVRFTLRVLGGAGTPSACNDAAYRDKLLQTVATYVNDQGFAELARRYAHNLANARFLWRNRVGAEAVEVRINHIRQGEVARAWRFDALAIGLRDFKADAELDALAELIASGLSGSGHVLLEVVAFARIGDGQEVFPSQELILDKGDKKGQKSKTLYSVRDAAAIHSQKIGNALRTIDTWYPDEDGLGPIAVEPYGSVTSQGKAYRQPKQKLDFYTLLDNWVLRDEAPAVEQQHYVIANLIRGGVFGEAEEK
T1 sequence 4: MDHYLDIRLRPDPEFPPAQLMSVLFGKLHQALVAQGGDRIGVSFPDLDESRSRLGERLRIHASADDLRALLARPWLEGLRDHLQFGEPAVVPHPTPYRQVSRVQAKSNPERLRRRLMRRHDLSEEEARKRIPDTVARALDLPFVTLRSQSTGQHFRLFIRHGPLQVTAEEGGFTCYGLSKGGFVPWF

T2: Csy complex (crRNA-guided surveillance complex) (Pseudomonas aeruginosa, UniProt Q02ML9;Q02MM0;Q02MM1;Q02MM2 1-434;1-327;1-342;1-187)
T2 sequence 1: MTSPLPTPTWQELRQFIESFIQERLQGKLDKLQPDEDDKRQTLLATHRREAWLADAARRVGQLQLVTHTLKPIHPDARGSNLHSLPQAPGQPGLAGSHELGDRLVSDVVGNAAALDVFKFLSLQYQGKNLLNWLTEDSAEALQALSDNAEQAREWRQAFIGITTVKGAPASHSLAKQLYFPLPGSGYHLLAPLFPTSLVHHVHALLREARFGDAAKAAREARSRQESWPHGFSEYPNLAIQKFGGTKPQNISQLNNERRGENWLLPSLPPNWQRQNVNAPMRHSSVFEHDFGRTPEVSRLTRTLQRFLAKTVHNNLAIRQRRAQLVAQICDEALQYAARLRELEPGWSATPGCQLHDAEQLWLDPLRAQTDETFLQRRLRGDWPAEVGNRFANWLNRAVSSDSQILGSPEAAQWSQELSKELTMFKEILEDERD
T2 sequence 2: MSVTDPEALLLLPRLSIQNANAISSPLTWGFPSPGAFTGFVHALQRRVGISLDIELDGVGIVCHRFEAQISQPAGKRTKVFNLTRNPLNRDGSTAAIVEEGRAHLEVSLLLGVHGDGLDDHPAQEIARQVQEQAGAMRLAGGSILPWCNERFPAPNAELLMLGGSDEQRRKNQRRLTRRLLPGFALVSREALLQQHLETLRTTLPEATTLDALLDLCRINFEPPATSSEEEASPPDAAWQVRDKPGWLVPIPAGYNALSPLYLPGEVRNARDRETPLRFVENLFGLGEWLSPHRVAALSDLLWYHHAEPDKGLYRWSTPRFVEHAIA
T2 sequence 3: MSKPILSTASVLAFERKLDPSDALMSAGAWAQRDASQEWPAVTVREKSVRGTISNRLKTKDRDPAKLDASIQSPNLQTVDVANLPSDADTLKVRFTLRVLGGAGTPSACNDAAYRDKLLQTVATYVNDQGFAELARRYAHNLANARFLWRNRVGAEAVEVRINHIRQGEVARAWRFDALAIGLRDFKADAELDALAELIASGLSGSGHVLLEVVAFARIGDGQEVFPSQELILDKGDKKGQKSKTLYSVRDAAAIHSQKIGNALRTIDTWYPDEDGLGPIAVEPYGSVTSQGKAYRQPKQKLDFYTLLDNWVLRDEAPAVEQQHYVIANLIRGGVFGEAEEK
T2 sequence 4: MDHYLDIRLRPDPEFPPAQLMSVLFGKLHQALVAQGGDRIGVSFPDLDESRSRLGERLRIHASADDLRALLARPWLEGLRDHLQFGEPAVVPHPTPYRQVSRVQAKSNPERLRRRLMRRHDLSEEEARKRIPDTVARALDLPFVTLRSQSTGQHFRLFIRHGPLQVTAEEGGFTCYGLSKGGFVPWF


Experiments:
[1] = biological target: T1, CsyRE3; assay: EMSA
[2] = biological target: T2, Csy complex (crRNA-guided surveillance …); assay: EMSA
[3] = biological target: T2, Csy complex (crRNA-guided surveillance …); assay: competition
[4] = biological target: the molecule itself; assay: cryo-EM structure

Binder | binding result [1] | binding result [2] | binding result [3] | stoichiometry N [4]
dsDNANS (non-specific, 54 bp) (dsDNA) DNA 1: GAGCGACTACGACATGAGCGCGCAGCTAAGACCGCCCGTAGATGCGTCGAGCGT DNA 2: ACGCTCGACGCATCTACGGGCGGTCTTAGCTGCGCGCTCATGTCGTAGTCGCTC | no binding | no binding |  | 
dsDNANS unlabeled (dsDNA) DNA 1: GAGCGACTACGACATGAGCGCGCAGCTAAGACCGCCCGTAGATGCGTCGAGCGT DNA 2: ACGCTCGACGCATCTACGGGCGGTCTTAGCTGCGCGCTCATGTCGTAGTCGCTC |  |  | no binding | 
Cas7f subunit of the Csy complex (natural protein, P. aeruginosa) MSKPILSTASVLAFERKLDPSDALMSAGAWAQRDASQEWPAVTVREKSVRGTISNRLKTKDRDPAKLDASIQSPNLQTVDVANLPSDADTLKVRFTLRVLGGAGTPSACNDAAYRDKLLQTVATYVNDQGFAELARRYAHNLANARFLWRNRVGAEAVEVRINHIRQGEVARAWRFDALAIGLRDFKADAELDALAELIASGLSGSGHVLLEVVAFARIGDGQEVFPSQELILDKGDKKGQKSKTLYSVRDAAAIHSQKIGNALRTIDTWYPDEDGLGPIAVEPYGSVTSQGKAYRQPKQKLDFYTLLDNWVLRDEAPAVEQQHYVIANLIRGGVFGEAEEK |  |  |  | 6
dsDNASP (specific target, 54 bp) (dsDNA) DNA 1: GGAAGCCATCCAGGTAGACGCGGACATCAAGCCCGCCGTGAAGGTGCAGCTGCT DNA 2: AGCAGCTGCACCTTCACGGCGGGCTTGATGTCCGCGTCTACCTGGATGGCTTCC | no binding | binds |  | 
